Data as given in paper doi:10.1101/464131.

Target: BS69 CC-MYND domain (amino acids 480-602) (human) (UniProt Q15326)
Assay: ITC

BS69 CC-MYND domain (amino acids 480-602) (human), sequence (Q15326 480-602): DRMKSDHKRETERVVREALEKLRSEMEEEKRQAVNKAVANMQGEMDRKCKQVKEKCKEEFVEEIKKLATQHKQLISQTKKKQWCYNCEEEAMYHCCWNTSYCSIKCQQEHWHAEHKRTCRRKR
type 1 EBNA2 polypeptide T1 EBNA2_(381-445) (domain or fragment), sequence (P12978 381-445): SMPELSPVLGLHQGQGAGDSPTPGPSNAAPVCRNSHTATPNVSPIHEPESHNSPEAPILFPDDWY

Substance	Kd	stoichiometry N (molar ratio EBNA2 : BS69CC-MYND monomer)
type 1 EBNA2 motif 2 peptide (435-445)	47.7 µM	–
type 1 EBNA2 polypeptide T1 EBNA2_(381-445) (domain or fragment)	0.95 µM	0.42
